Results on 1 molecule are retold here after paper PMC6294562.

This series addresses thrombin (alpha-thrombin) (UniProt P00734;P00734 328-363;364-622). The experiment in a line: X-ray crystallography.

B1: NU172 (ARC2172) (structured_DNA)
DNA: CGCCTAGGTTGGGTAGGGTGGTGGCG
In the case of B1, the binding result is reported as “binds”.
